Measured values reported in patent US20250032632A1 (published 2025).
Positions count from the first letter of the chain named. Names and notes keep the numbering of the source.

B1: F6B1P3D12 (mouse monoclonal anti-cMET antibody) (antibody, V domains shown)
VH: QVQLQQSGAELAKPGASVKMSCRASGYTFTSYWMHWVKQRPGQGLDWIGYIKPSTDNTEYNQKFKDKATLTADKSSSTAYMQLSSLTSEDSAVYYCARSYGNYPLMDYWGQGTSVTVSS
VL: QIVLTQSPAIMSASPGEKVTLTCSASSSVTSNYLYWYQQKPGSSPKLWIYSTSNLASGVPARFSGSGSGTSYSLTISSMEAEDAASYFCHQWSSYPPTFGSGTKLEIKR
notes: Mouse hybridoma antibody (ATCC PTA-125826); also called Mouse P3D12
B2: F6BP2D4 (antibody, V domains shown)
VH: B1 VH with R23K, D46E, K52N, N57Y, T58I, D73G, Y103F
VL: B1 VL with T30S, A61V
notes: Mouse monoclonal antibody
B3: F6B1P1E2 (antibody, V domains shown)
VH: B1 VH with R23K, D46E, K52N, N57Y, S77T, A97V
VL: B1 VL with T30S, Q38H, A61V
notes: Mouse monoclonal antibody
B4: F5P5B9 (antibody, V domains shown)
VH: QVQLKESGPGLVAPSQSLSITCTVSGFSLTNYGVNWVRQPPGKGLEWLGLIWGGGDTDYNSALKSRLSISKDNSKSQVFLKMETNSLQTDDTARYYCARDYYGFDYWGQGTTLTVSS
VL: DVLMTQTPLSLPVSLGDQASISCRSSQTIVHGTGNTYLEWYLQKPGQSPKLLIYKVSNRFSGVPDRFSGSGSGTDFTLKISRVEAEDLGVYYCFQGSHVPYTFGGGTKLEIKR
notes: Mouse monoclonal antibody
B5: F6AP8E2 (antibody, V domains shown)
VH: EVQLQQSGAELVRPGALVKLSCKASGFNINDYFMHWVKQRPEQGLEWIGWIDPENGNTIYDPKFQGKASITADTSSNTAYLQLSSLTSEDTAVYYCARGGNYLRESYYYAMDYWGQGTSVTVSS
VL: DIVMTQSPKSMSMSVGERVTLSCKASENVGTYVSWYQQKPDQSPKLLIYGASNRYTGVPDRFTGSGSATDFTLTISSVQAEDLADYHCGQSYSYPLTFGAGTKLELKR
notes: Mouse monoclonal antibody
B6: G2cka (humanized P3D12, VH-cdr + VL-abb/sdr) (antibody, V domains shown)
VH: QVQLVQSGAEVKKPGASVKVSCKASGYTFTSYWMHWVKQAPGQGLDWIGYIKPSTDNTEYNQKFKDKATLTADKSTSTAYMELSSLRSEDTAVYYCARSYGNYPLMDYWGQGTTVTVSS
VL: QIVLTQSPATLSLSPGERATLSCRASQSVTSNYLYWYQQKPGSSPRLLIYSTSNLASGVPARFSGSGSGTDYTLTISRLEPEDFASYFCHQWSSYPPTFGSGTKLEIKR
notes: Humanized and isotype switched version of P3D12
B7: G2fkf (humanized P3D12, VH-fra + VL-fra) (antibody, V domains shown)
VH: B6 VH with V5Q, A40R, K67R, A68V, E82Q, S85N, R87I, T114S
VL: B1 VL with M11L, A13L, K18R, V19A, T22S, W48L, S73T, M79L
notes: as for B6
B8: G2vkf (humanized P3D12, VH-ven + VL-fra) (antibody, V domains shown)
VH: B6 VH with K12A, V20M, E82Q
VL: B1 VL with M11L, A13L, K18R, V19A, T22S, W48L, S73T, M79L
notes: as for B6
B9: hD12 (humanized anti-cMET antibody of IgG2 isotype, VH-cdr SEQ ID NO: 108 + VL-fra SEQ ID NO: 47) (antibody)
heavy: QVQLVQSGAEVKKPGASVKVSCKASGYTFTSYWMHWVKQAPGQGLDWIGYIKPSTDNTEYNQKFKDKATLTADKSTSTAYMELSSLRSEDTAVYYCARSYGNYPLMDYWGQGTTVTVSSASTKGPSVFPLAPCSRSTSESTAALGCLVKDYFPEPVTVSWNSGALTSGVHTFPAVLQSSGLYSLSSVVTVPSSNFGTQTYTCNVDHKPSNTKVDKTVERKCCVECPPCPAPPVAGPSVFLFPPKPKDTLMISRTPEVTCVVVDVSHEDPEVQFNWYVDGVEVHNAKTKPREEQFNSTFRVVSVLTVVHQDWLNGKEYKCKVSNKGLPAPIEKTISKTKGQPREPQVYTLPPSREEMTKNQVSLTCLVKGFYPSDIAVEWESNGQPENNYKTTPPMLDSDGSFFLYSKLTVDKSRWQQGNVFSCSVMHEALHNHYTQKSLSLSPGK
light: QIVLTQSPAILSLSPGERATLSCSASSSVTSNYLYWYQQKPGSSPKLLIYSTSNLASGVPARFSGSGSGTSYTLTISSLEAEDAASYFCHQWSSYPPTFGSGTKLEIKRTVAAPSVFIFPPSDEQLKSGTASVVCLLNNFYPREAKVQWKVDNALQSGNSQESVTEQDSKDSTYSLSSTLTLSKADYEKHKVYACEVTHQGLSSPVTKSFNRGEC
notes: also called G2ckf
B10: hD12-T289C-II (hD12 T289C variant site-specifically conjugated to the payload of chemical formula II) (antibody, human IgG2, kappa)
heavy: B9 heavy with T287C
light: B9 light
modifications: payload of chemical formula II on Cys 289 (EU numbering), maleimide chemistry
notes: Antibody-drug conjugate, IgG2
B11: hD12-VII (Antibody hD12 attached to the payload of chemical formula VII, stochastic conjugation) (antibody, human IgG2, kappa)
heavy: B9 heavy
light: B9 light
modifications: payload of chemical formula VII on one or more cysteine residues of the antibody at random positions (chain not stated); payload of chemical formula VII (pyrrolobenzodiazepine toxin + linking group, maleimide) on one or more cysteine residues of the antibody at random positions
notes: Antibody-drug conjugate; also called hD12-vc-VII
B12: hD12-II (Antibody hD12 attached to the payload of chemical formula II, stochastic conjugation) (antibody, human IgG2, kappa)
heavy: B9 heavy
light: B9 light
modifications: payload of chemical formula II on one or more cysteine residues of the antibody at random positions (chain not stated); payload of chemical formula II (pyrrolobenzodiazepine toxin + linking group, maleimide) on one or more cysteine residues of the antibody at random positions
notes: also called hD12-vc-II
B13: hD12-VI (Antibody hD12 attached to the payload of chemical formula VI, stochastic conjugation) (antibody, human IgG2, kappa)
heavy: B9 heavy
light: B9 light
modifications: payload of chemical formula VI on one or more cysteine residues of the antibody at random positions (chain not stated); payload of chemical formula VI (pyrrolobenzodiazepine toxin + linking group, maleimide) on one or more cysteine residues of the antibody at random positions
notes: Antibody-drug conjugate; also called hD12-vc-VI
B14: hD12-XI (Antibody hD12 attached to the payload of chemical formula XI, stochastic conjugation) (antibody, human IgG2, kappa)
heavy: B9 heavy
light: B9 light
modifications: payload of chemical formula XI on one or more cysteine residues of the antibody at random positions (chain not stated); payload of chemical formula XI (pyrrolobenzodiazepine toxin + linking group, maleimide) on one or more cysteine residues of the antibody at random positions
notes: Antibody-drug conjugate; also called hD12-vc-XI
B15: hD12-IV (Antibody hD12 attached to the payload of chemical formula IV, stochastic conjugation) (antibody, human IgG2, kappa)
heavy: B9 heavy
light: B9 light
modifications: payload of chemical formula IV on one or more cysteine residues of the antibody at random positions (chain not stated); payload of chemical formula IV (pyrrolobenzodiazepine toxin + linking group, maleimide) on one or more cysteine residues of the antibody at random positions
notes: Antibody-drug conjugate; also called hD12-vc-IV
B16: ABF46 (antibody, V domains shown)
VH: EVKLVESGGGLVQPGGSLRLSCATSGFTFTDYYMSWVRQPPGKALEWLGFIRNKANGYTTEYSASVKGRFTISRDNSQSILYLQMDTLRAEDSATYYCARDNWFAYWGQGTLVTVSA
VL: DILMTQSPSSLTVSAGEKVTMSCKSSQSLLASGNQNNYLAWHQQKPGRSPKMLIIWASTRVSGVPDRFIGSGSGTDFTLTINSVQAEDLAVYYCQQSYSAPLTFGAGTKLELK

These molecules were tested against mouse cMET (ELISA antigen) (mouse, UniProt P16056 25-931, limits assumed) (assay: ELISA, cross-reactivity, mouse cMET).
Sequence of mouse cMET (ELISA antigen) (P16056 25-931 limits assumed): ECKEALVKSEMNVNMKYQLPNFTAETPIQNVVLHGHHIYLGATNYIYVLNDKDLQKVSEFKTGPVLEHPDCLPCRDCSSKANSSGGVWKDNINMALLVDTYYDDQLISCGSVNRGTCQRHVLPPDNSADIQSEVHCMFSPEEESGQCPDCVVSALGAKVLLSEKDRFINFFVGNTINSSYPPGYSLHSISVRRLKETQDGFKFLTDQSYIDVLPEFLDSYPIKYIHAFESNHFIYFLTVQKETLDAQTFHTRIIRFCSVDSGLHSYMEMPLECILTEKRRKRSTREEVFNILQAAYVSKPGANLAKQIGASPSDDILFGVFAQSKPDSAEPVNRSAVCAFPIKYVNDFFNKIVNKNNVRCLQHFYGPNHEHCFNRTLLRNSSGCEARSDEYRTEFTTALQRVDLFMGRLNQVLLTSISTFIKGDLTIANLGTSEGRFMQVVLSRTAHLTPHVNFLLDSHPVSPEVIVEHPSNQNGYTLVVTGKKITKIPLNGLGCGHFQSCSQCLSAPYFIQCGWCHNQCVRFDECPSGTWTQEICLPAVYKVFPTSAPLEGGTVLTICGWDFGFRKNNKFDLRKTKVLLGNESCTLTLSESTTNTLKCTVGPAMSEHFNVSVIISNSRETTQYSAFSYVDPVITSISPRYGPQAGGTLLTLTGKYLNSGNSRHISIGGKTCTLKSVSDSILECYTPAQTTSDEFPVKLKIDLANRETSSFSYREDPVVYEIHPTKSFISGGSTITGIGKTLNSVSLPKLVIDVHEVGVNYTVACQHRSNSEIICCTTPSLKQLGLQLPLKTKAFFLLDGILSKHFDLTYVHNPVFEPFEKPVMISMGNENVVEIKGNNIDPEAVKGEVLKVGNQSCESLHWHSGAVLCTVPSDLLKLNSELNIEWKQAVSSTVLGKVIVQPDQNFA

| binding result | Molecule |
| --- | --- |
| no binding | B1 |
| no binding | B2 |
| no binding | B3 |
| no binding | B4 |
| no binding | B5 |

Each molecule was assayed against T1, human cMET-Fc fusion protein (extracellular domain of human cMET fused to human Fc) (human, UniProt P08581 25-932) (assay: SPR, hMET-Fc).
T1 construct: Mature cMET is cleaved into alpha and beta subunits; also called hMET-Fc; hMet-Fc
T1 sequence (P08581 25-932): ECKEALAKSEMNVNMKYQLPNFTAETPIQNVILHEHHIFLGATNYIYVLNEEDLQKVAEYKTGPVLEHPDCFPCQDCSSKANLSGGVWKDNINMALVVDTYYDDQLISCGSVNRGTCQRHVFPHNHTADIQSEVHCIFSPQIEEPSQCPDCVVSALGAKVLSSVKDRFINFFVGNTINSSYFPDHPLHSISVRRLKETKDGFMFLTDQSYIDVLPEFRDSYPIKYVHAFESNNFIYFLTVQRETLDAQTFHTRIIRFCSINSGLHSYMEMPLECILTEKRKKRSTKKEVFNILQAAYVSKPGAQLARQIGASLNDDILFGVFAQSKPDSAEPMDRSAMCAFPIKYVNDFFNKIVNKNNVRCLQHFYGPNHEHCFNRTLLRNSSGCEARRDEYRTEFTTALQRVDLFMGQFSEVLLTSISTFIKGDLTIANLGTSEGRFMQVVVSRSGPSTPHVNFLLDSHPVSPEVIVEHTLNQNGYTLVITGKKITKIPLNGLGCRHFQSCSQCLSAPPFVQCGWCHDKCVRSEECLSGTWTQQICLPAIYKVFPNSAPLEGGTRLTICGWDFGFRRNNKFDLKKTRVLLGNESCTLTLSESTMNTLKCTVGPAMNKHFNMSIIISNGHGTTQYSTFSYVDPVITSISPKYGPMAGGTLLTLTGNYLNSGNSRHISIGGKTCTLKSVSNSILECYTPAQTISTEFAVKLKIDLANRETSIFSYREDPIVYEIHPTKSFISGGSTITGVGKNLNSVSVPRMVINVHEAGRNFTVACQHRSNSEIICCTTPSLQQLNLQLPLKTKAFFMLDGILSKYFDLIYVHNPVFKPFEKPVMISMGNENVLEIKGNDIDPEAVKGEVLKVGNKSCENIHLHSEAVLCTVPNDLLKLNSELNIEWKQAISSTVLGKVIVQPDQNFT

| Kd | Molecule |
| --- | --- |
| 0.9 nM | B1 |
| 0.4 nM | B6 |
| 0.4 nM | B7 |
| 0.3 nM | B8 |
| 0.3 nM | B9 |

Each molecule was assayed against T2, human cMET (ELISA antigen) (human, UniProt P08581 25-932, limits assumed) (assay: ELISA on human cMET, relative to parental P3D12).
T2 construct: also called hMET
T2 sequence (P08581 25-932 limits assumed): as the sequence (P08581 25-932) above

| ELISA hMET vs parental | Molecule |
| --- | --- |
| 1.3 fold vs parental | B6 |
| 1.7 fold vs parental | B7 |
| 1.1 fold vs parental | B8 |
| 0.7 fold vs parental | B9 |

Each molecule was assayed against human cMET-Fc fusion protein (extracellular domain of human cMET fused to human Fc) (human) (UniProt P08581) (assay: SPR with hMet-Fc).
Sequence of human cMET-Fc fusion protein (extracellular domain of human cMET fused to human Fc) (human) (P08581 25-932): as above

| Kd | Molecule |
| --- | --- |
| 0.8 nM | 5D5 (antibody) |

What follows are molecules tested against T3, mutant cMET (E168D) Fc recombinant fusion protein (human, UniProt P08581 25-932) (assay: binding ELISA, plate-coated E168D cMET-Fc, goat anti-human IgG (H+L)-HRP (FIG. 16)).
T3 construct: also called E168D cMET; E168D cMET extracellular domain fused to human IgG1 Fc; not shown: Fc of human IgG1
T3 sequence (P08581 25-932 E168D): as the sequence (P08581 25-932) above, with E144D counted along it
Experimental: The E168D mutation is a somatic mutation found in small cell lung cancer (SCLC). The mutation is located in the Sema domain and leads to constitutive activation of the cMET receptor. Abundance of somatic mutations of cMET are very low. E168D occurs in 0.8% to 3% of SCLC patients. A binding ELISA was performed with human cMET or E168D cMET extracellular domains fused to human IgG1 Fc. cMET proteins were coated on a plate overnight and the samples titrated and detected with a goat anti-human IgG (H+L)-HRP. EC₅₀s were determined using sigmoidal dose response fit.

| binding result | Molecule |
| --- | --- |
| binds | B9 |

What follows are molecules tested against T4, rat cMET-Fc (rat, UniProt P97523 25-935) (assay: SPR, rMET-Fc).
T4 construct: Construct named only as rMET-Fc; also called rMET-Fc; not shown: Fc part
T4 sequence (P97523 25-935 limits assumed): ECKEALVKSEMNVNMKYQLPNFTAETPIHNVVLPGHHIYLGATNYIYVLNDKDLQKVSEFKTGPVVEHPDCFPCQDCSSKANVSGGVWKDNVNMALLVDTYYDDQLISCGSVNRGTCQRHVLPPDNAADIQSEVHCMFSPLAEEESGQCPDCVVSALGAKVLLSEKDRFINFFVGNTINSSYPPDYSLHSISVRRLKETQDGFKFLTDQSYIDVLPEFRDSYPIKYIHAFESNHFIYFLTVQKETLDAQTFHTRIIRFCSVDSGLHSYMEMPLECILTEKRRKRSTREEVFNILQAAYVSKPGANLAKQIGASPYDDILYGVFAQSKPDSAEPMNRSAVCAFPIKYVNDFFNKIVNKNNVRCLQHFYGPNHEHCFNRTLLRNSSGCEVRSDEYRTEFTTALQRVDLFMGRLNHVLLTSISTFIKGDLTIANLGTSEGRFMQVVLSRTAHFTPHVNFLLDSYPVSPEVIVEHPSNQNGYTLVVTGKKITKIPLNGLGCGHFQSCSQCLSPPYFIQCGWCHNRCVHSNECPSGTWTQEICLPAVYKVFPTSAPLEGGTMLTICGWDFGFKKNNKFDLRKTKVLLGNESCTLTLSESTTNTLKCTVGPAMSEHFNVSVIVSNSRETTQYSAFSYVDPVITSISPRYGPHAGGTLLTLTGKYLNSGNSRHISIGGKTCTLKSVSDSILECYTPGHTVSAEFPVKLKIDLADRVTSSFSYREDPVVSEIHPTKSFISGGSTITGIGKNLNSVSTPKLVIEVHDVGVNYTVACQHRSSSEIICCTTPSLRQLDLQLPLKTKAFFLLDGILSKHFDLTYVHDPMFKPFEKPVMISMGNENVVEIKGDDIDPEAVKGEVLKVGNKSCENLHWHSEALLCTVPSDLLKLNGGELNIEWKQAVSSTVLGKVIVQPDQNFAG

| Kd | Molecule |
| --- | --- |
| 16 nM | B1 |
| 29 nM | B6 |
| 30 nM | B7 |
| 8 nM | B8 |
| 7 nM | B9 |

Each molecule was assayed against T5, Recombinant Human c-Met-10X His (human, UniProt P08581 25-932) (assay: cMET binding ELISA, plate-bound human cMET (FIGS. 24A, 24B)).
T5 construct: In-house reagent (Lot #140924TA); not shown: 10X His tag
T5 sequence (P08581 25-932 limits assumed): as the sequence (P08581 25-932) above
Experimental: The antibody drug conjugates were tested at increasing concentrations (x-axis, concentration of antibody-drug conjugate (μg/ml)) for their ability to bind plate-bound human cMET. Relative binding strength is indicated by luminescence (y-axis).
PMID: 5257969. The payload of chemical formula II was site-specifically conjugated to each of the mutated cysteine residues using Maleimide chemistry. The quality and extent of conjugation was assessed by a determination of total recovery, aggregate content, monomer content and drug-antibody ratio (DAR).

| binding result | Molecule |
| --- | --- |
| binds | B10 |

These molecules were tested against T5, Recombinant Human c-Met-10X His (assay: ELISA, plate-bound human cMET (FIGS. 17A, 17B)).
Excerpt: Relative binding strength is indicated by luminescence (y-axis).

| binding result | Molecule |
| --- | --- |
| binds | B11 |
| binds | B12 |
| binds | B13 |
| binds | B14 |
| binds | B15 |

What follows are molecules tested against T6, rat cMET (ELISA antigen) (rat, UniProt P97523 25-935, limits assumed) (assay: ELISA, cross-reactivity, rat cMET).
T6 construct: also called rMET
T6 sequence (P97523 25-935 limits assumed): as the sequence (P97523 25-935 limits assumed) above

| binding result | Molecule |
| --- | --- |
| no binding | B4 |
| no binding | B5 |

What follows are molecules tested against T1, human cMET-Fc fusion protein … (assay: SPR with hMet-Fc).

| Kd | Molecule |
| --- | --- |
| 0.75 nM | B1 |
| 0.48 nM | B2 |
| 0.89 nM | B3 |
| 0.7 nM | B16 |
| 0.16 nM | B5 |

What follows are molecules tested against T6, rat cMET (ELISA antigen) (assay: ELISA on rat cMET, relative to parental P3D12).

| ELISA rMET vs parental | Molecule |
| --- | --- |
| 2.7 fold vs parental | B6 |
| 1.4 fold vs parental | B7 |
| 1 fold vs parental | B8 |
| 0.9 fold vs parental | B9 |
